In US20180237508A1 (INTERNATIONA DRUG DEVELOPMENT BIOTECH, published 2018):
Ends that are not written are not given here.

T1: Unconjugated peptide 12 (human)
T1 peptide: KLSELEAALQRAKQD

T2: Unconjugated peptide 16 (human)
T2 peptide: DANAKLSELEAALQRAKQD

T3: Unconjugated peptide 21 (human)
T3 peptide: AIKDANAKLSELEAALQR

T4: Unconjugated peptide 18 (human)
T4 peptide: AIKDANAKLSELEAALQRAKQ

T5: Unconjugated peptide 17 (human)
T5 peptide: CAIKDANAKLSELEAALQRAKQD

T6: Unconjugated peptide 15 (human)
T6 peptide: ANAKLSELEAALQRAKQD

T7: Unconjugated peptide 10 (human)
T7 peptide: SELEAALQRAKQD

T8: Unconjugated peptide 22 (human)
T8 peptide: AIKDANAKLSELEAALQ

T9: Unconjugated peptide 7 (human)
T9 peptide: EAALQRAKQD

T10: Unconjugated peptide 14 (human)
T10 peptide: NAKLSELEAALQRAKQD

T11: Unconjugated peptide 6 (human)
T11 peptide: AALQRAKQD

T12: Unconjugated peptide 25 (human)
T12 peptide: AIKDANAKLSELEA

T13: Unconjugated peptide 11 (human)
T13 peptide: LSELEAALQRAKQD

T14: Unconjugated peptide 19 (human)
T14 peptide: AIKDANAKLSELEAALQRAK

T15: Unconjugated peptide 9 (human)
T15 peptide: ELEAALQRAKQD

T16: Unconjugated peptide 8 (human)
T16 peptide: LEAALQRAKQD

T17: Unconjugated peptide 24 (human)
T17 peptide: AIKDANAKLSELEAA

T18: Unconjugated peptide 5 (human)
T18 peptide: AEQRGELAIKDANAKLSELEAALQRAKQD

T19: Unconjugated peptide 26 (human)
T19 peptide: AIKDANAKLSELE

T20: Unconjugated peptide 27 (human)
T20 peptide: AIKDANAKLSEL

T21: Unconjugated peptide 13 (human)
T21 peptide: AKLSELEAALQRAKQD

T22: Unconjugated peptide 28 (human)
T22 peptide: AIKDANAKLSE

T23: Unconjugated peptide 20 (human)
T23 peptide: AIKDANAKLSELEAALQRA

T24: BSA conjugated peptide 2 (human, BSA coupled at the SH group of the C-terminal cysteine)
T24 peptide: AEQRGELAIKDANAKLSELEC

T25: BSA conjugated peptide 17 (human, BSA conjugated (the added cysteine is printed at the N-terminus))
T25 peptide: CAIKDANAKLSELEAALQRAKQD

T26: BSA conjugated peptide 1 (human, BSA coupled at the SH group of the C-terminal cysteine)
T26 peptide: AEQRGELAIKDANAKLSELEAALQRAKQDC

T27: BSA conjugated peptide 4 (human, also: conjugated to BSA via the thiol of the C-terminal Cys)
T27 peptide: SELEAALQRAKQDC(BSA)

T28: BSA conjugated peptide 3 (human, also: conjugated to BSA via the thiol of the C-terminal Cys)
T28 peptide: AALQRAKQDC(BSA)

B1: Unconjugated peptide 1 (peptide)
peptide: T26 peptide
B2: Murine monoclonal antibody D-A10 (antibody, V domains shown)
VH: EVQLLETGGGLVQPGGSRGLSCEGSGFTFSGFWMSWVRQTPGKTLEWIGDINSDGSAIKYAPSIKDRFTIFRDNDKSTLYLQMSNVRSEDTATYFCIAHYSGGGFAYWGQGTSVTVSS
VL: NIVMTQAAPSVPVTPGESVSISCRSSKSLLYSNGNTYLYWFLQRPGQSPQRLIYYMSNLASGVPDRFSGRGSGTDFTLRISRVEAEDVGVYYCMQSLEYPFTFGGGTKLEIK
notes: Murine IgG from a hybridoma, purified from ascitic fluid on protein A; also called mD-A10 Mab; mD-A10

Tests used:
[1] = target: B2; assay: flow cytometry competition, free peptide against biotinylated antibody on Isreco-1 cells
Experimental: 2.10⁵ Isreco-1 cells per 96-wells were incubated with a biotinylated antibody anti-CK8 (12.5 μg/mL) with or without peptide 1 or peptide 2 tested at different concentrations and incubated at 4° C. for 30 min. Unbound antibody was washed away with PBS (Invitrogen, Villebon sur Yvette, France) supplemented by 1% Bovine Serum Albumin (Sigma, St Quentin Fallavier, France). Subsequently, cells were centrifuged (5 min at 400 g) and bound antibody was detected with Phycoerythrin conjugated Streptavidin (Interchim, Montlucon, France) at 4° C. for 30 min. Detection reagent was washed away and cells were centrifuged (5 min at 400 g) and suspended in 300 μL PBS. Bound detection antibody was quantified on a FACS CAN (BD Biosciences, Rungis, France), (FL2 channel, 2 000 events per acquisition). During the experiment, the respective isotype controls were included to exclude any unspecific binding events. The presence of peptide 1 inhibits cell labelling with the mD-D6 or mD-A10 Mab without any significant impact on M20 Mab cellular staining.

Unconjugated peptide 23 = Unconjugated peptide 23 (human); assay: ELISA, coated unconjugated peptide
Experimental: (§1) The CK8 peptides, coupled or not with the bovine serum albumin (BSA) at the SH group of the C-terminal cysteine, were immobilized (0.5 μg/ml or 1 μg/ml respectively) at the bottom of the wells of a 96 well plate overnight at room temperature. Unbound peptides are washed away with purified water supplemented by Tween (Sigma, St Quentin Fallavier, France). The wells are then saturated with a saline phosphate buffer solution (PBS) containing 5% BSA for 2 hours at room temperature (RT). Then the plates are washed away with purified water supplemented by Tween. The Mab binding to the coated peptides is tested at different Mab concentrations following an incubation for 2 hours at RT in PBS (Invitrogen, Villebon sur Yvette, France) supplemented by 1% Bovine Serum Albumin (Sigma, St Quentin Fallavier, France). Unbound Mabs are washed away with purified water supplemented by Tween. […] The absorbance is read at 450 nm and corrected at 630 nm. The specific requirements for the different experiments are detailed below.
(§2) The unconjugated peptides 1, 5 to 28 of human CK8 were immobilized (2 μg/ml) at the bottom of a 96-wells plate. Different Mab concentrations (from 10 μg/mL then diluted at 1/10) were incubated for 2 hours at room temperature alone or with each peptide tested. The optical density values (OD) was read at 450 nm and corrected at 630 nm. The results are shown in FIG. 13A (related to mD-A10) or on FIG. 13B (related to M20).

Unconjugated peptide 12 = target: T1, Unconjugated peptide 12; assay: ELISA, coated unconjugated peptide
Experimental: as §1, §2

Unconjugated peptide 16 = target: T2, Unconjugated peptide 16; assay: ELISA, coated unconjugated peptide
Experimental: as §1, §2

Unconjugated peptide 21 = target: T3, Unconjugated peptide 21; assay: ELISA, coated unconjugated peptide
Experimental: as §1, §2

Unconjugated peptide 18 = target: T4, Unconjugated peptide 18; assay: ELISA, coated unconjugated peptide
Experimental: as §1, §2

Unconjugated peptide 17 = target: T5, Unconjugated peptide 17; assay: ELISA, coated unconjugated peptide
Experimental: as §1, §2

Unconjugated peptide 15 = target: T6, Unconjugated peptide 15; assay: ELISA, coated unconjugated peptide
Experimental: as §1, §2

Unconjugated peptide 10 = target: T7, Unconjugated peptide 10; assay: ELISA, coated unconjugated peptide
Experimental: as §1, §2

Unconjugated peptide 22 = target: T8, Unconjugated peptide 22; assay: ELISA, coated unconjugated peptide
Experimental: as §1, §2

Unconjugated peptide 7 = target: T9, Unconjugated peptide 7; assay: ELISA, coated unconjugated peptide
Experimental: as §1, §2

Unconjugated peptide 14 = target: T10, Unconjugated peptide 14; assay: ELISA, coated unconjugated peptide
Experimental: as §1, §2

Unconjugated peptide 6 = target: T11, Unconjugated peptide 6; assay: ELISA, coated unconjugated peptide
Experimental: as §1, §2

Unconjugated peptide 25 = target: T12, Unconjugated peptide 25; assay: ELISA, coated unconjugated peptide
Experimental: as §1, §2

Unconjugated peptide 11 = target: T13, Unconjugated peptide 11; assay: ELISA, coated unconjugated peptide
Experimental: as §1, §2

Unconjugated peptide 19 = target: T14, Unconjugated peptide 19; assay: ELISA, coated unconjugated peptide
Experimental: as §1, §2

Unconjugated peptide 9 = target: T15, Unconjugated peptide 9; assay: ELISA, coated unconjugated peptide
Experimental: as §1, §2

Unconjugated peptide 8 = target: T16, Unconjugated peptide 8; assay: ELISA, coated unconjugated peptide
Experimental: as §1, §2

Unconjugated peptide 24 = target: T17, Unconjugated peptide 24; assay: ELISA, coated unconjugated peptide
Experimental: as §1, §2

Unconjugated peptide 5 = target: T18, Unconjugated peptide 5; assay: ELISA, coated unconjugated peptide
Experimental: as §1, §2

Unconjugated peptide 26 = target: T19, Unconjugated peptide 26; assay: ELISA, coated unconjugated peptide
Experimental: as §1, §2

Unconjugated peptide 1 = target: B1; assay: ELISA, coated unconjugated peptide
Experimental: as §1, §2

Unconjugated peptide 27 = target: T20, Unconjugated peptide 27; assay: ELISA, coated unconjugated peptide
Experimental: as §1, §2

Unconjugated peptide 13 = target: T21, Unconjugated peptide 13; assay: ELISA, coated unconjugated peptide
Experimental: as §1, §2

Unconjugated peptide 28 = target: T22, Unconjugated peptide 28; assay: ELISA, coated unconjugated peptide
Experimental: as §1, §2

Unconjugated peptide 20 = target: T23, Unconjugated peptide 20; assay: ELISA, coated unconjugated peptide
Experimental: as §1, §2

BSA conjugated peptide 2 = target: T24, BSA conjugated peptide 2; assay: ELISA, coated BSA conjugated peptide
Experimental: as §1
(§3) Different Mab concentrations (from 10 μg/mL then diluted at 1/10) were incubated for 2 hours at room temperature with either the peptide 1, peptide 2, peptide 3, peptide 4 or peptide 17. The optical density values (OD) was read at 450 nm and corrected at 630 nm.

[2] = target: T25, BSA conjugated peptide 17; assay: ELISA, coated BSA conjugated peptide
Experimental: as §1, §3

BSA conjugated peptide 1 = target: T26, BSA conjugated peptide 1; assay: ELISA, coated BSA conjugated peptide
Experimental: as §1, §3

BSA conjugated peptide 4 = target: T27, BSA conjugated peptide 4; assay: ELISA, coated BSA conjugated peptide
Experimental: as §1, §3

BSA conjugated peptide 3 = target: T28, BSA conjugated peptide 3; assay: ELISA, coated BSA conjugated peptide
Experimental: as §1, §3

Binder: B1
binding result [1]: binds

Binder: B2
binding result (Unconjugated peptide 23): binds
binding result (Unconjugated peptide 12): binds
binding result (Unconjugated peptide 16): binds
binding result (Unconjugated peptide 21): binds
binding result (Unconjugated peptide 18): binds
binding result (Unconjugated peptide 17): binds
binding result (Unconjugated peptide 15): binds
binding result (Unconjugated peptide 10): no binding (tested: from 10 ug/mL then diluted at 1/10)
binding result (Unconjugated peptide 22): binds
binding result (Unconjugated peptide 7): no binding (tested: from 10 ug/mL then diluted at 1/10)
binding result (Unconjugated peptide 14): binds
binding result (Unconjugated peptide 6): no binding (tested: from 10 ug/mL then diluted at 1/10)
binding result (Unconjugated peptide 25): no binding (tested: from 10 ug/mL then diluted at 1/10)
binding result (Unconjugated peptide 11): binds
binding result (Unconjugated peptide 19): binds
binding result (Unconjugated peptide 9): no binding (tested: from 10 ug/mL then diluted at 1/10)
binding result (Unconjugated peptide 8): no binding (tested: from 10 ug/mL then diluted at 1/10)
binding result (Unconjugated peptide 24): no binding (tested: from 10 ug/mL then diluted at 1/10)
binding result (Unconjugated peptide 5): binds
binding result (Unconjugated peptide 26): no binding (tested: from 10 ug/mL then diluted at 1/10)
binding result (Unconjugated peptide 1): binds
binding result (Unconjugated peptide 27): no binding (tested: from 10 ug/mL then diluted at 1/10)
binding result (Unconjugated peptide 13): binds
binding result (Unconjugated peptide 28): no binding (tested: from 10 ug/mL then diluted at 1/10)
binding result (Unconjugated peptide 20): binds
binding result (BSA conjugated peptide 2): no binding (tested: from 10 ug/mL then diluted at 1/10)
binding result [2]: binds
binding result (BSA conjugated peptide 1): binds
binding result (BSA conjugated peptide 4): binds
binding result (BSA conjugated peptide 3): no binding (tested: from 10 ug/mL then diluted at 1/10)
